Patent US20220119534A1 (DRAGONFLY THERAPEUTICS, published 2022)
Values joined by “and” are separate entries in the source; they are usually repeats but may differ in a detail not shown here. Identical values can stand only once. Each block holds one binder with its values, some of them ahead of it.

Legend:
[1] = molecular target: T1, Human CD16a V158 (FcγRIIIa V158) (human, UniProt P08637 17-208, biotinylated (site not stated)); assay: SPR; biotinylated CD16a V158 captured on SA chip, TriNKET as analyte; 1:1 kinetic fit; control sample
T1 construct: V158 is the allele name in mature numbering; also called hCD16aV; hCD16a V158

mFc-hNKG2D [2] = molecular target: T2, mFc-hNKG2D (human, UniProt P26718 73-216); assay: SPR Biacore 8K 37 C; mFc-hNKG2D captured on anti-mFc chip, TriNKET as analyte; steady state fit; control, n=3
T2 construct: extracellular domain; Made in house (Dragonfly Tx); the order of tag and ECD follows the name mFc-hNKG2D; also called mFc-tagged human NKG2D; not shown: mouse Fc tag
T2 sequence (looked up): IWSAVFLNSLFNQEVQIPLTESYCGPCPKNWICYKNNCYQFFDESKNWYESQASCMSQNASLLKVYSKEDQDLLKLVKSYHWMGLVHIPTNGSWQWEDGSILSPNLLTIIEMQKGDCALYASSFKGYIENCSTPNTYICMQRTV

[3] = molecular target: T1, Human CD16a V158 (FcγRIIIa V158); assay: SPR; biotinylated CD16a V158 captured on SA chip, TriNKET as analyte; 1:1 kinetic fit; control, n=3
Human CD16b = molecular target: T3, Human CD16b (human, UniProt O75015 17-200, limits assumed, biotinylated); assay: SPR, steady state fit; average for AB0192
T3 construct: Bought recombinant receptor; also called hFcγRIIIb

mFc-hNKG2D [4] = molecular target: T4, mFc-hNKG2D (human, UniProt P26718 73-216); assay: SPR, 37 C, mFc-hNKG2D captured, kinetic fit
T4 construct: extracellular domain; Recombinant mFc-tagged NKG2D dimer, made in house; also called human NKG2D; not shown: mouse Fc tag
T4 sequence (looked up): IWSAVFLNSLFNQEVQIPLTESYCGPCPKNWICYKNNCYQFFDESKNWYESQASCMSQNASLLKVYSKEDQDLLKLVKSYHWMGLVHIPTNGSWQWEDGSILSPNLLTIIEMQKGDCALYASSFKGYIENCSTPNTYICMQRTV

Human CLEC12A-His = molecular target: T5, Human CLEC12A-His (human, UniProt Q5QGZ9 65-265); assay: SPR; taken as the sample after forced oxidation (0.02% H2O2, 24 h)
T5 construct: Recombinant soluble protein made in house; also called hCLEC12A-His; hCLEC12A; not shown: His tag
T5 sequence: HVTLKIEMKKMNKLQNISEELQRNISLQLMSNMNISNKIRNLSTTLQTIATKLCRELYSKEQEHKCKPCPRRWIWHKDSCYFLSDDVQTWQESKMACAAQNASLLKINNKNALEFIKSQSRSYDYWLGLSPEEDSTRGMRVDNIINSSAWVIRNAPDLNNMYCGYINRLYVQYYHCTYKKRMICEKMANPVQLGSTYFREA

[5] = molecular target: T6, human CLEC12A expressed on cells (human, UniProt Q5QGZ9 1-265); assay: flow cytometry, hCLEC12A+ Ba/F3
T6 construct: Transduced isogenic cells or endogenous expression on AML cells; also called RMA-hCLEC12A; Ba/F3-hCLEC12A
T6 sequence: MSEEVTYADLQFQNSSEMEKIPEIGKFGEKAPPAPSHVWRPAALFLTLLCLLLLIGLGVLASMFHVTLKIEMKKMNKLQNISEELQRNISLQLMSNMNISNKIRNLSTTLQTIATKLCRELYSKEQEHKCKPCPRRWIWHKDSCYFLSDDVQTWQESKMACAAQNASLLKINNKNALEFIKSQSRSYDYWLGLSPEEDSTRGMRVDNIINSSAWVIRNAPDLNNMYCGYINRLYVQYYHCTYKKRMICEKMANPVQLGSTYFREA

T1 sequence (P08637 17-208 F176V limits assumed): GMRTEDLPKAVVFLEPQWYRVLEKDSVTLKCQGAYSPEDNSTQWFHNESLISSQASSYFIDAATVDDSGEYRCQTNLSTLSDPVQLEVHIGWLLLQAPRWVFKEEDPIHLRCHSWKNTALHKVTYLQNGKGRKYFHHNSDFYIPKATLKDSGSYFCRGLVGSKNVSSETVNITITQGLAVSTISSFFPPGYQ
T3 sequence (O75015 17-200 limits assumed): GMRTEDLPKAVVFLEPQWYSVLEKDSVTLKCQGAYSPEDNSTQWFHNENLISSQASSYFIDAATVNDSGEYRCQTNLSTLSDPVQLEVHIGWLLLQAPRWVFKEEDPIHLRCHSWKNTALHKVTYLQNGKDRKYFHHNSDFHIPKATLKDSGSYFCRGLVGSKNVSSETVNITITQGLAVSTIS

- Kd [1]: 212 nM
- koff [1]: 0.024 s⁻¹
- kon [1]: 113000 M⁻¹ s⁻¹
- Kd (mFc-hNKG2D [2]): 710 nM
- Kd [3]: 212 nM
- koff [3]: 0.024 s⁻¹
- kon [3]: 113000 M⁻¹ s⁻¹
B1: F3'-1602 TriNKET (bispecific antibody, human IgG1, kappa)
chain: QLQLQESGPGLVKPSETLSLTCTVSGFSLTNYGLHWIRQPPGKCLEWIGVIWSGGKTDYNPSLKSRVTISKDTSKNQFSLKLSSVQAADTAVYYCAKYDYDDSLDYWGQGTLVTVSSGGGGSGGGGSGGGGSGGGGSDIQMTQSPSSLSASVGDRVTITCHASQNINFWLSWYQQKPGKAPKLLIYEASNLHTGVPSRFSGSGSGTRFTLTISSLQPEDIATYYCQQSHSYPLTFGCGTKLEIKGSDKTHTCPPCPAPELLGGPSVFLFPPKPKDTLMISRTPEVTCVVVDVSHEDPEVKFNWYVDGVEVHNAKTKPREEQYNSTYRVVSVLTVLHQDWLNGKEYKCKVSNKALPAPIEKTISKAKGQPREPRVYTLPPCRDELTKNQVSLTCLVKGFYPSDIAVEWESNGQPENNYKTTPPVLVSDGSFTLYSKLTVDKSRWQQGNVFSCSVMHEALHNHYTQKSLSLSPG
heavy: EVQLVESGGGLVKPGGSLRLSCAASGFTFSSYSMNWVRQAPGKGLEWVSSISSSSSYIYYADSVKGRFTISRDNAKNSLYLQMNSLRAEDTAVYYCARGAPIGAAAGWFDPWGQGTLVTVSSASTKGPSVFPLAPSSKSTSGGTAALGCLVKDYFPEPVTVSWNSGALTSGVHTFPAVLQSSGLYSLSSVVTVPSSSLGTQTYICNVNHKPSNTKVDKKVEPKSCDKTHTCPPCPAPELLGGPSVFLFPPKPKDTLMISRTPEVTCVVVDVSHEDPEVKFNWYVDGVEVHNAKTKPREEQYNSTYRVVSVLTVLHQDWLNGKEYKCKVSNKALPAPIEKTISKAKGQPREPQVCTLPPSRDELTENQVSLTCLVKGFYPSDIAVEWESNGQPENNYKTTPPVLDSDGSFFLYSWLTVDKSRWQQGNVFSCSVMHEALHNHYTQKSLSLSPG
light: DIQMTQSPSSVSASVGDRVTITCRASQGISSWLAWYQQKPGKAPKLLIYAASSLQSGVPSRFSGSGSGTDFTLTISSLQPEDFATYYCQQGVSFPRTFGGGTKVEIKRTVAAPSVFIFPPSDEQLKSGTASVVCLLNNFYPREAKVQWKVDNALQSGNSQESVTEQDSKDSTYSLSSTLTLSKADYEKHKVYACEVTHQGLSSPVTKSFNRGEC
notes: Trispecific F3' format: CLEC12A scFv-Fc paired with NKG2D Fab-Fc; Stressed and control samples of the stability studies are the same molecule; also called AB0237

- Kd (Human CD16b): 6 µM
- Kd (mFc-hNKG2D [4]): 770 nM and 778 nM and 790 nM
- Kd (Human CLEC12A-His): 1.71 nM
- koff (Human CLEC12A-His): 0.00132 s⁻¹
- kon (Human CLEC12A-His): 775000 M⁻¹ s⁻¹
B2: AB0192 TriNKET (other)
chain: EVQLVESGGGVVQPGGSLRLSCAASGFTFNAFGMHWVRQAPGKCLEWVAFISSGSTSIYYANTVKGRFTISRDNSKNTLYLQMNSLRAEDTAVYYCARDGYPTGGAMDYWGQGTSVTVSSGGGGSGGGGSGGGGSGGGGSDIQMTQSPSSLSASVGDRVTITCKASQDIYNYLSWFQQKPGKAPKPLIYRANILVSGVPSRFSGSGSGQDYTFTISSLQPEDIATYYCLQFDAFPFTFGCGTKLEIKGSDKTHTCPPCPAPELLGGPSVFLFPPKPKDTLMISRTPEVTCVVVDVSHEDPEVKFNWYVDGVEVHNAKTKPREEQYNSTYRVVSVLTVLHQDWLNGKEYKCKVSNKALPAPIEKTISKAKGQPREPRVYTLPPCRDELTKNQVSLTCLVKGFYPSDIAVEWESNGQPENNYKTTPPVLVSDGSFTLYSKLTVDKSRWQQGNVFSCSVMHEALHNHYTQKSLSLSPG
heavy: EVQLVESGGGLVKPGGSLRLSCAASGFTFSSYSMNWVRQAPGKGLEWVSSISSSSSYIYYADSVKGRFTISRDNAKNSLYLQMNSLRAEDTAVYYCARGAPIGAAAGWFDPWGQGTLVTVSSASTKGPSVFPLAPSSKSTSGGTAALGCLVKDYFPEPVTVSWNSGALTSGVHTFPAVLQSSGLYSLSSVVTVPSSSLGTQTYICNVNHKPSNTKVDKKVEPKSCDKTHTCPPCPAPELLGGPSVFLFPPKPKDTLMISRTPEVTCVVVDVSHEDPEVKFNWYVDGVEVHNAKTKPREEQYNSTYRVVSVLTVLHQDWLNGKEYKCKVSNKALPAPIEKTISKAKGQPREPQVCTLPPSRDELTENQVSLTCLVKGFYPSDIAVEWESNGQPENNYKTTPPVLDSDGSFFLYSWLTVDKSRWQQGNVFSCSVMHEALHNHYTQKSLSLSPG
light: DIQMTQSPSSVSASVGDRVTITCRASQGISSWLAWYQQKPGKAPKLLIYAASSLQSGVPSRFSGSGSGTDFTLTISSLQPEDFATYYCQQGVSFPRTFGGGTKVEIKRTVAAPSVFIFPPSDEQLKSGTASVVCLLNNFYPREAKVQWKVDNALQSGNSQESVTEQDSKDSTYSLSSTLTLSKADYEKHKVYACEVTHQGLSSPVTKSFNRGEC
notes: the condition stands under assay; also called AB0192 Lot AB0192-005

- EC50 [5]: 2 nM
- Max binding MFI [5]: 14700 MFI
B3: F3'-1602 TriNKET (other)
chain: QLQLQESGPGLVKPSETLSLTCTVSGFSLTNYGLHWIRQPPGKCLEWIGVIWSGGKTDYNPSLKSRVTISKDTSKNQFSLKLSSVQAADTAVYYCAKYDYDDSLDYWGQGTLVTVSSGGGGSGGGGSGGGGSGGGGSDIQMTQSPSSLSASVGDRVTITCHASQNINFWLSWYQQKPGKAPKLLIYEASNLHTGVPSRFSGSGSGTRFTLTISSLQPEDIATYYCQQSHSYPLTFGCGTKLEIKGSDKTHTCPPCPAPELLGGPSVFLFPPKPKDTLMISRTPEVTCVVVDVSHEDPEVKFNWYVDGVEVHNAKTKPREEQYNSTYRVVSVLTVLHQDWLNGKEYKCKVSNKALPAPIEKTISKAKGQPREPRVYTLPPCRDELTKNQVSLTCLVKGFYPSDIAVEWESNGQPENNYKTTPPVLVSDGSFTLYSKLTVDKSRWQQGNVFSCSVMHEALHNHYTQKSLSLSPG
heavy: EVQLVESGGGLVKPGGSLRLSCAASGFTFSSYSMNWVRQAPGKGLEWVSSISSSSSYIYYADSVKGRFTISRDNAKNSLYLQMNSLRAEDTAVYYCARGAPIGAAAGWFDPWGQGTLVTVSSASTKGPSVFPLAPSSKSTSGGTAALGCLVKDYFPEPVTVSWNSGALTSGVHTFPAVLQSSGLYSLSSVVTVPSSSLGTQTYICNVNHKPSNTKVDKKVEPKSCDKTHTCPPCPAPELLGGPSVFLFPPKPKDTLMISRTPEVTCVVVDVSHEDPEVKFNWYVDGVEVHNAKTKPREEQYNSTYRVVSVLTVLHQDWLNGKEYKCKVSNKALPAPIEKTISKAKGQPREPQVCTLPPSRDELTENQVSLTCLVKGFYPSDIAVEWESNGQPENNYKTTPPVLDSDGSFFLYSWLTVDKSRWQQGNVFSCSVMHEALHNHYTQKSLSLSPG
light: DIQMTQSPSSVSASVGDRVTITCRASQGISSWLAWYQQKPGKAPKLLIYAASSLQSGVPSRFSGSGSGTDFTLTISSLQPEDFATYYCQQGVSFPRTFGGGTKVEIKRTVAAPSVFIFPPSDEQLKSGTASVVCLLNNFYPREAKVQWKVDNALQSGNSQESVTEQDSKDSTYSLSSTLTLSKADYEKHKVYACEVTHQGLSSPVTKSFNRGEC
notes: CLEC12A scFv-Fc, NKG2D A49MI Fab-Fc, human IgG1 Fc; also called AB0237
